By Kd is commonly meant the equilibrium constant for the complex coming apart.

In one series the target is Rbpj K195E (mouse, UniProt P31266 53-474, K195E). Put plainly: ITC; 10 C; ITC: 50 mM sodium phosphate, 150 mM NaCl, 10 C (pH not stated); EMSA purified: 3.4 nM probe, 10 min room temperature; EMSA IVT: 10 mM Tris-HCl pH 7.5, 100 mM NaCl, 0.1 mM EDTA, 0.5 mM DTT, 4% glycerol, poly(dI-dC). The settings on record: protein: recombinant; tags: GST removed by PreScission (pGEX-6P1); blunt. For orientation: In ITC the heat of successive injections is recorded.
Rbpj K195E, sequence (P31266 53-474 K195E): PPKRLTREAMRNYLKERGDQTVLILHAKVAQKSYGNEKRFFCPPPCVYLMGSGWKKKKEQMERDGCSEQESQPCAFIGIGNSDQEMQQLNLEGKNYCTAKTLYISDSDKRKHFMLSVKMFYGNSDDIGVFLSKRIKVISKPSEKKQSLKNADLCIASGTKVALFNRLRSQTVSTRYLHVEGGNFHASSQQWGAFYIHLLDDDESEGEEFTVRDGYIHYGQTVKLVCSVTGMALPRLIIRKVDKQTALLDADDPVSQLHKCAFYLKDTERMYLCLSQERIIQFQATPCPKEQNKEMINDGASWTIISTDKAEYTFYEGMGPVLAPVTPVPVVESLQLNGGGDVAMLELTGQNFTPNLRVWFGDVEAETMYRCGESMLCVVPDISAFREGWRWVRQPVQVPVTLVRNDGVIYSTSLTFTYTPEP

Series [1] concerns the target T1, Rbpj WT (core) (mouse, UniProt P31266 53-474). The series is described as above. Conditions: protein: recombinant; tags: GST removed by PreScission (pGEX-6P1); blunt.
A further series addresses Rbpj E89G (mouse, UniProt P31266 53-474, E89G). The series is described as above. Conditions: protein: recombinant; tags: GST removed by PreScission (pGEX-6P1); blunt.
Series [2] concerns the target T1, Rbpj WT (core). In words: EMSA; ITC: 50 mM sodium phosphate, 150 mM NaCl, 10 C (pH not stated); EMSA purified: 3.4 nM probe, 10 min room temperature; EMSA IVT: 10 mM Tris-HCl pH 7.5, 100 mM NaCl, 0.1 mM EDTA, 0.5 mM DTT, 4% glycerol, poly(dI-dC). The settings on record: protein: recombinant; tags: GST removed by PreScission (pGEX-6P1); label: IRDye-700 at 5' end of strand 2; blunt. In general terms: In EMSA bound probe runs differently from free probe, usually more slowly.

The next series concerns the target Flag-Rbpj WT full length (mouse, UniProt P31266 1-526). In words: EMSA; poly(dI-dC); single and double occupancy; anti-Flag supershift; ITC: 50 mM sodium phosphate, 150 mM NaCl, 10 C (pH not stated); EMSA purified: 3.4 nM probe, 10 min room temperature; EMSA IVT: 10 mM Tris-HCl pH 7.5, 100 mM NaCl, 0.1 mM EDTA, 0.5 mM DTT, 4% glycerol, poly(dI-dC). Conditions: protein: ivt; tags: Flag; label: 32P; 5' overhang 4 nt both ends.

T1 sequence (P31266 53-474): as the sequence (P31266 53-474 K195E) above, with E143K counted along it
Flag-Rbpj WT full length, sequence (P31266 whole entry): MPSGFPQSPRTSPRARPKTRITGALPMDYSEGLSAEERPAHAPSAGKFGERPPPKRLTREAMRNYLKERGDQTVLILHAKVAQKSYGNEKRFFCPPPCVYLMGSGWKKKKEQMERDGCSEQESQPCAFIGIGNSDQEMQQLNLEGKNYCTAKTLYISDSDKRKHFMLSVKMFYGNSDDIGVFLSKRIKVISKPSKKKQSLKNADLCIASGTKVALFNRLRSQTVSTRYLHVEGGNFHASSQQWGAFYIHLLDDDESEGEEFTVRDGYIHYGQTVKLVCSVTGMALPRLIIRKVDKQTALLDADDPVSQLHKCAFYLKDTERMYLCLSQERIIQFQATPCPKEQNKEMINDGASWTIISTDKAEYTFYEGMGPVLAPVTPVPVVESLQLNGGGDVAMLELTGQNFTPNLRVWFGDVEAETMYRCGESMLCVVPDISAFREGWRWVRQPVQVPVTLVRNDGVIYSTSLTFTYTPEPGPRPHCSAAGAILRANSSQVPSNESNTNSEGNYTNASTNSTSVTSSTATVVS
Rbpj E89G, sequence (P31266 53-474 E89G): as the sequence (P31266 53-474 K195E) above, with E37G, E143K counted along it

B1: ITC 20-mer CSL duplex (dsDNA)
DNA 1: GGCACCGTGGGAAACTAGTG
DNA 2: CACTAGTTTCCCACGGTGCC
Take B1: the values for the Kd in the series with Rbpj K195E, with Rbpj WT (core) [1] and with Rbpj E89G were 1160 ± 258 nM, 74 ± 10.8 nM and 440 ± 86.8 nM, respectively.

B2: EMSA high affinity CSL probe (dsDNA)
DNA 1: CGAACGAGGCAAACCTAGGCTAGAGGCACCGTGGGAAACTAGTGCGGGCGTGGCT
DNA 2: AGCCACGCCCGCACTAGTTTCCCACGGTGCCTCTAGCCTAGGTTTGCCTCGTTCG
In the case of B2, the binding result in the series with Rbpj WT (core) [2] was “binds”.

B3: EMSA probe with 2 RBPJ sites (dsDNA)
DNA 1: CCTGGAACTATTTTCCCACGGTGCCCTTCCGCCCATTTTCCCACGAGTCG
DNA 2: CTCGCGACTCGTGGGAAAATGGGCGGAAGGGCACCGTGGGAAAATAGTTC
With B3, the binding result with Flag-Rbpj WT full length is on record as “binds”.

These data come from PMC9398005, “A Drosophila Su(H) model of Adams-Oliver Syndrome reveals cofactor titration as a mechanism underlying developmental defects”.
